The Human Domainome abundance scans (Beltran et al. 2025)
± gives the uncertainty stated by the source.

B1: Tripartite motif-containing protein 44, residues 174 to 218; numbered along this chain, Q96DX7 (parent)
chain: VAKRKCPDHGLDLSTYCQEDRQLICVLCPVIGAHQGHQLSTLDEA

Variants of: B1
Test: abundance fitness (aPCA) (normalised: wild type 0, dead -1); higher = more abundant; growth selection in yeast, the domain comes from the species named
Conditions: Homo sapiens

**Q.** For VAKRKCPDHGLDLSTYCQEDRQLICVLCIVIGAHQGHQLSTLDEA, which abundance fitness is on record?
**A.** The abundance fitness was -0.168 ± 0.049.

**Q.** For VAKRKCPDHGLDLSTYCQEDRQLICVLCKVIGAHQGHQLSTLDEA, which abundance fitness is on record?
**A.** Its abundance fitness is -0.004 ± 0.039.

**Q.** With VAKRKCPDHGLDLSTYCQEDRQLICVLCLVIGAHQGHQLSTLDEA as the variant, how does the abundance fitness read?
**A.** The abundance fitness was -0.117 ± 0.029.

**Q.** Which abundance fitness does the source give for VAKRKCPDHGLDLSTYCQEDRQLICVLCMVIGAHQGHQLSTLDEA here?
**A.** The abundance fitness was -0.04 ± 0.034.

**Q.** Which abundance fitness does the source give for VAKRKCPDHGLDLSTYCQEDRQLICVLCNVIGAHQGHQLSTLDEA here?
**A.** The abundance fitness was -0.064 ± 0.05.

**Q.** With VAKRKCPDHGLDLSTYCQEDRQLICVLCQVIGAHQGHQLSTLDEA as the variant, how does the abundance fitness read?
**A.** Its abundance fitness is -0.071 ± 0.033.

**Q.** With VAKRKCPDHGLDLSTYCQEDRQLICVLCRVIGAHQGHQLSTLDEA as the variant, how does the abundance fitness read?
**A.** Its abundance fitness is -0.054 ± 0.027.

**Q.** Which abundance fitness does the source give for VAKRKCPDHGLDLSTYCQEDRQLICVLCSVIGAHQGHQLSTLDEA here?
**A.** Its abundance fitness is 0.012 ± 0.031.

**Q.** For VAKRKCPDHGLDLSTYCQEDRQLICVLCTVIGAHQGHQLSTLDEA, which abundance fitness is on record?
**A.** Its abundance fitness is -0.021 ± 0.036.

**Q.** With VAKRKCPDHGLDLSTYCQEDRQLICVLCVVIGAHQGHQLSTLDEA as the variant, how does the abundance fitness read?
**A.** Its abundance fitness is -0.133 ± 0.026.

**Q.** Which abundance fitness does the source give for VAKRKCPDHGLDLSTYCQEDRQLICVLCWVIGAHQGHQLSTLDEA here?
**A.** Its abundance fitness is -0.207 ± 0.03.

**Q.** With VAKRKCPDHGLDLSTYCQEDRQLICVLCYVIGAHQGHQLSTLDEA as the variant, how does the abundance fitness read?
**A.** The abundance fitness was -0.098 ± 0.056.

**Q.** Which abundance fitness does the source give for VAKRKCPDHGLDLSTYCQEDRQLICVLCPAIGAHQGHQLSTLDEA here?
**A.** The abundance fitness was -0.011 ± 0.028.

**Q.** For VAKRKCPDHGLDLSTYCQEDRQLICVLCPCIGAHQGHQLSTLDEA, which abundance fitness is on record?
**A.** Its abundance fitness is -0.073 ± 0.039.

**Q.** For VAKRKCPDHGLDLSTYCQEDRQLICVLCPDIGAHQGHQLSTLDEA, which abundance fitness is on record?
**A.** The abundance fitness was 0.001 ± 0.047.

**Q.** Which abundance fitness does the source give for VAKRKCPDHGLDLSTYCQEDRQLICVLCPEIGAHQGHQLSTLDEA here?
**A.** Its abundance fitness is 0.013 ± 0.03.

**Q.** Which abundance fitness does the source give for VAKRKCPDHGLDLSTYCQEDRQLICVLCPFIGAHQGHQLSTLDEA here?
**A.** Its abundance fitness is -0.133 ± 0.039.

**Q.** Which abundance fitness does the source give for VAKRKCPDHGLDLSTYCQEDRQLICVLCPGIGAHQGHQLSTLDEA here?
**A.** Its abundance fitness is -0.144 ± 0.026.

**Q.** Which abundance fitness does the source give for VAKRKCPDHGLDLSTYCQEDRQLICVLCPHIGAHQGHQLSTLDEA here?
**A.** Its abundance fitness is -0.046 ± 0.05.

**Q.** For VAKRKCPDHGLDLSTYCQEDRQLICVLCPIIGAHQGHQLSTLDEA, which abundance fitness is on record?
**A.** The abundance fitness was -0.032 ± 0.046.

**Q.** For VAKRKCPDHGLDLSTYCQEDRQLICVLCPKIGAHQGHQLSTLDEA, which abundance fitness is on record?
**A.** The abundance fitness was 0.096 ± 0.03.

**Q.** Which abundance fitness does the source give for VAKRKCPDHGLDLSTYCQEDRQLICVLCPLIGAHQGHQLSTLDEA here?
**A.** The abundance fitness was -0.076 ± 0.027.

**Q.** With VAKRKCPDHGLDLSTYCQEDRQLICVLCPMIGAHQGHQLSTLDEA as the variant, how does the abundance fitness read?
**A.** Its abundance fitness is -0.008 ± 0.034.

**Q.** For VAKRKCPDHGLDLSTYCQEDRQLICVLCPNIGAHQGHQLSTLDEA, which abundance fitness is on record?
**A.** The abundance fitness was -0.057 ± 0.05.

**Q.** For VAKRKCPDHGLDLSTYCQEDRQLICVLCPPIGAHQGHQLSTLDEA, which abundance fitness is on record?
**A.** Its abundance fitness is -0.369 ± 0.032.

**Q.** With VAKRKCPDHGLDLSTYCQEDRQLICVLCPQIGAHQGHQLSTLDEA as the variant, how does the abundance fitness read?
**A.** Its abundance fitness is 0.045 ± 0.031.

**Q.** Which abundance fitness does the source give for VAKRKCPDHGLDLSTYCQEDRQLICVLCPRIGAHQGHQLSTLDEA here?
**A.** Its abundance fitness is 0.019 ± 0.026.

**Q.** With VAKRKCPDHGLDLSTYCQEDRQLICVLCPSIGAHQGHQLSTLDEA as the variant, how does the abundance fitness read?
**A.** The abundance fitness was 0.005 ± 0.028.

**Q.** Which abundance fitness does the source give for VAKRKCPDHGLDLSTYCQEDRQLICVLCPTIGAHQGHQLSTLDEA here?
**A.** The abundance fitness was 0.051 ± 0.031.

**Q.** Which abundance fitness does the source give for VAKRKCPDHGLDLSTYCQEDRQLICVLCPWIGAHQGHQLSTLDEA here?
**A.** Its abundance fitness is -0.159 ± 0.028.

**Q.** For VAKRKCPDHGLDLSTYCQEDRQLICVLCPVAGAHQGHQLSTLDEA, which abundance fitness is on record?
**A.** The abundance fitness was 0.022 ± 0.028.

**Q.** Which abundance fitness does the source give for VAKRKCPDHGLDLSTYCQEDRQLICVLCPVCGAHQGHQLSTLDEA here?
**A.** The abundance fitness was -0.103 ± 0.031.

**Q.** For VAKRKCPDHGLDLSTYCQEDRQLICVLCPVDGAHQGHQLSTLDEA, which abundance fitness is on record?
**A.** The abundance fitness was 0.062 ± 0.04.

**Q.** Which abundance fitness does the source give for VAKRKCPDHGLDLSTYCQEDRQLICVLCPVEGAHQGHQLSTLDEA here?
**A.** The abundance fitness was 0.053 ± 0.03.

**Q.** For VAKRKCPDHGLDLSTYCQEDRQLICVLCPVFGAHQGHQLSTLDEA, which abundance fitness is on record?
**A.** Its abundance fitness is -0.11 ± 0.043.

**Q.** Which abundance fitness does the source give for VAKRKCPDHGLDLSTYCQEDRQLICVLCPVGGAHQGHQLSTLDEA here?
**A.** Its abundance fitness is -0.002 ± 0.026.

**Q.** For VAKRKCPDHGLDLSTYCQEDRQLICVLCPVHGAHQGHQLSTLDEA, which abundance fitness is on record?
**A.** Its abundance fitness is 0.029 ± 0.042.

**Q.** For VAKRKCPDHGLDLSTYCQEDRQLICVLCPVKGAHQGHQLSTLDEA, which abundance fitness is on record?
**A.** The abundance fitness was 0.067 ± 0.036.

**Q.** Which abundance fitness does the source give for VAKRKCPDHGLDLSTYCQEDRQLICVLCPVLGAHQGHQLSTLDEA here?
**A.** Its abundance fitness is -0.02 ± 0.028.

**Q.** For VAKRKCPDHGLDLSTYCQEDRQLICVLCPVMGAHQGHQLSTLDEA, which abundance fitness is on record?
**A.** The abundance fitness was 0.016 ± 0.03.

**Q.** Which abundance fitness does the source give for VAKRKCPDHGLDLSTYCQEDRQLICVLCPVNGAHQGHQLSTLDEA here?
**A.** The abundance fitness was 0.059 ± 0.037.

**Q.** With VAKRKCPDHGLDLSTYCQEDRQLICVLCPVPGAHQGHQLSTLDEA as the variant, how does the abundance fitness read?
**A.** Its abundance fitness is -0.306 ± 0.038.

**Q.** With VAKRKCPDHGLDLSTYCQEDRQLICVLCPVQGAHQGHQLSTLDEA as the variant, how does the abundance fitness read?
**A.** The abundance fitness was 0.028 ± 0.031.

**Q.** Which abundance fitness does the source give for VAKRKCPDHGLDLSTYCQEDRQLICVLCPVRGAHQGHQLSTLDEA here?
**A.** Its abundance fitness is 0.003 ± 0.026.

**Q.** Which abundance fitness does the source give for VAKRKCPDHGLDLSTYCQEDRQLICVLCPVSGAHQGHQLSTLDEA here?
**A.** Its abundance fitness is 0.097 ± 0.028.

**Q.** Which abundance fitness does the source give for VAKRKCPDHGLDLSTYCQEDRQLICVLCPVTGAHQGHQLSTLDEA here?
**A.** The abundance fitness was 0.052 ± 0.029.

**Q.** For VAKRKCPDHGLDLSTYCQEDRQLICVLCPVVGAHQGHQLSTLDEA, which abundance fitness is on record?
**A.** Its abundance fitness is 0.032 ± 0.027.

**Q.** Which abundance fitness does the source give for VAKRKCPDHGLDLSTYCQEDRQLICVLCPVWGAHQGHQLSTLDEA here?
**A.** Its abundance fitness is -0.13 ± 0.029.

**Q.** Which abundance fitness does the source give for VAKRKCPDHGLDLSTYCQEDRQLICVLCPVYGAHQGHQLSTLDEA here?
**A.** Its abundance fitness is -0.077 ± 0.043.

**Q.** For VAKRKCPDHGLDLSTYCQEDRQLICVLCPVIAAHQGHQLSTLDEA, which abundance fitness is on record?
**A.** Its abundance fitness is -0.425 ± 0.028.

**Q.** With VAKRKCPDHGLDLSTYCQEDRQLICVLCPVICAHQGHQLSTLDEA as the variant, how does the abundance fitness read?
**A.** The abundance fitness was -0.575 ± 0.042.

**Q.** With VAKRKCPDHGLDLSTYCQEDRQLICVLCPVIDAHQGHQLSTLDEA as the variant, how does the abundance fitness read?
**A.** The abundance fitness was -0.417 ± 0.035.

**Q.** Which abundance fitness does the source give for VAKRKCPDHGLDLSTYCQEDRQLICVLCPVIEAHQGHQLSTLDEA here?
**A.** The abundance fitness was -0.355 ± 0.03.

**Q.** With VAKRKCPDHGLDLSTYCQEDRQLICVLCPVIFAHQGHQLSTLDEA as the variant, how does the abundance fitness read?
**A.** Its abundance fitness is -0.871 ± 0.14.

**Q.** With VAKRKCPDHGLDLSTYCQEDRQLICVLCPVIHAHQGHQLSTLDEA as the variant, how does the abundance fitness read?
**A.** The abundance fitness was -0.49 ± 0.046.

**Q.** With VAKRKCPDHGLDLSTYCQEDRQLICVLCPVIIAHQGHQLSTLDEA as the variant, how does the abundance fitness read?
**A.** Its abundance fitness is -0.757 ± 0.1.

**Q.** For VAKRKCPDHGLDLSTYCQEDRQLICVLCPVIKAHQGHQLSTLDEA, which abundance fitness is on record?
**A.** Its abundance fitness is -0.261 ± 0.043.
